From the supplement of paper PMC5998384 come the findings set out here.

The test system of data set [1] is HeLa Kyoto. The experiment in a line: solubility change mitosis vs G1/S (difference of NP-40 vs SDS log2 ratios) (log2 ratio difference); higher = more soluble in mitosis.
Data set [2] relates to HeLa Kyoto. The experiment in a line: solubility in G1/S (NP-40 vs SDS abundance) (log2 ratio); higher = more soluble. Conditions: cell cycle stage: G1/S.
The subject of data set [3] is HeLa Kyoto. The data set can be described thus: thermal stability score vs G1/S (z-score of summed log2 fold changes over temperatures); higher = more thermally stable than in G1/S.
The test system of data set [4] is HeLa Kyoto. The experiment in a line: melting temperature (median over replicates), in situ; higher = more thermally stable.
[5] abbreviates: cell cycle stage: early G1 (4.5 h after nocodazole release).
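For melting temperature (median over replicates), in situ in this document: HeLa Kyoto cells synchronized by double thymidine or nocodazole block, proteins quantified by TMT10plex mass spectrometry, three independent biological replicates.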
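For solubility change mitosis vs G1/S (difference of NP-40 vs SDS log2 ratios) in this document: synchronized HeLa Kyoto cells (double thymidine block for G1/S, nocodazole release for mitosis), protein amounts in NP-40 versus SDS lysates quantified by mass spectrometry, three biological replicates.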
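For solubility in G1/S (NP-40 vs SDS abundance) in this document: HeLa Kyoto cells arrested at G1/S by double thymidine block, proteins quantified by TMT10plex mass spectrometry in mild NP-40 versus SDS extracts, three biological replicates.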
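For thermal stability score vs G1/S (z-score of summed log2 fold changes over temperatures) in this document: synchronized HeLa Kyoto cells, proteins quantified by TMT10plex mass spectrometry, three biological replicates, mitosis taken 0.5 h after nocodazole release, G1/S directly after double thymidine block.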

Turning to “MEDLGENTMVLSTLRSLNNFISQRVEGGSGLDISTSAPGSLQMQYQQSMQLEERAEQIRSKSHLIQVEREKMQMELSHKRARVELERAASTSARNYEREVDRNQELLTRIRQLQEREAGAEEKMQEQLERNRQCQQNLDAASKRLREKEDSLAQAGETINALKGRISELQWSVMDQEMRVKRLESEKQELQEQLDLQHKKCQEANQKIQELQASQEARADHEQQIKDLEQKLSLQEQDAAIVKNMKSELVRLPRLERELKQLREESAHLREMRETNGLLQEELEGLQRKLGRQEKMQETLVGLELENERLLAKLQSWERLDQTMGLSIRTPEDLSRFVVELQQRELALKDKNSAVTSSARGLEKARQQLQEELRQVSGQLLEERKKRETHEALARRLQKRVLLLTKERDGMRAILGSYDSELTPAEYSPQLTRRMREAEDMVQKVHSHSAEMEAQLSQALEELGGQKQRADMLEMELKMLKSQSSSAEQSFLFSREEADTLRLKVEELEGERSRLEEEKRMLEAQLERRALQGDYDQSRTKVLHMSLNPTSVARQRLREDHSQLQAECERLRGLLRAMERGGTVPADLEAAAASLPSSKEVAELKKQVESAELKNQRLKEVFQTKIQEFRKACYTLTGYQIDITTENQYRLTSLYAEHPGDCLIFKATSPSGSKMQLLETEFSHTVGELIEVHLRRQDSIPAFLSSLTLELFSRQTVA [MAD1L1]”, in the data set on HeLa Kyoto [1], the “solubility change mitosis (log2)” value was -0.0768. Besides, the “solubility in G1/S (log2)” value in the data set with HeLa Kyoto [2] came out at 0.361. In addition, the figures for the thermal stability score in the data set on HeLa Kyoto [3] (setting [5]) and in the data set on HeLa Kyoto [3] (cell cycle stage: mitosis) were 0.414 and 0.454, respectively. The melting temperature is 48.4 °C in the data set on HeLa Kyoto [4] (cell cycle stage: G1/S) and 47.8 °C in the data set with HeLa Kyoto [4] (cell cycle stage: mitosis).

Consider “MEDPQSKEPAGEAVALALLESPRPEGGEEPPRPSPEETQQCKFDGQETKGSKFITSSASDFSDPVYKEIAITNGCINRMSKEELRAKLSEFKLETRGVKDVLKKRLKNYYKKQKLMLKESNFADSYYDYICIIDFEATCEEGNPPEFVHEIIEFPVVLLNTHTLEIEDTFQQYVRPEINTQLSDFCISLTGITQDQVDRADTFPQVLKKVIDWMKLKELGTKYKYSLLTDGSWDMSKFLNIQCQLSRLKYPPFAKKWINIRKSYGNFYKVPRSQTKLTIMLEKLGMDYDGRPHCGLDDSKNIARIAVRMLQDGCELRINEKMHAGQLMSVSSSLPIEGTPPPQMPHFRK [ERI1]”, for which the “solubility change mitosis (log2)” value in the data set on HeLa Kyoto [1] is -0.00712. Besides, in the data set with HeLa Kyoto [2], the “solubility in G1/S (log2)” value is -0.0987. Further, the thermal stability score with HeLa Kyoto [3] (setting [5]) is -0.616; in the data set on HeLa Kyoto [3] (cell cycle stage: mitosis) it was 0.0498. In addition, the figures for the melting temperature with HeLa Kyoto [4] (cell cycle stage: G1/S) and with HeLa Kyoto [4] (cell cycle stage: mitosis) were 51 °C and 49.9 °C, respectively.

On to “MEDPTLYIVERPLPGYPDAEAPEPSSAGAQAAEEPSGAGSEELIKSDQVNGVLVLSLLDKIIGAVDQIQLTQAQLEERQAEMEGAVQSIQGELSKLGKAHATTSNTVSKLLEKVRKVSVNVKTVRGSLERQAGQIKKLEVNEAELLRRRNFKVMIYQDEVKLPAKLSISKSLKESEALPEKEGEELGEGERPEEDAAALELSSDEAVEVEEVIEESRAERIKRSGLRRVDDFKKAFSKEKMEKTKVRTRENLEKTRLKTKENLEKTRHTLEKRMNKLGTRLVPAERREKLKTSRDKLRKSFTPDHVVYARSKTAVYKVPPFTFHVKKIREGQVEVLKATEMVEVGADDDEGGAERGEAGDLRRGSSPDVHALLEITEESDAVLVDKSDSD [PTRF]”, for which the “solubility change mitosis (log2)” value with HeLa Kyoto [1] turned out to be 0.094. Also, in the data set on HeLa Kyoto [2], the “solubility in G1/S (log2)” value was -0.215. Also, the values for the thermal stability score with HeLa Kyoto [3] (setting [5]) and with HeLa Kyoto [3] (cell cycle stage: mitosis) were -3.64 and -4.73, respectively. Also, the results for the melting temperature in the data set with HeLa Kyoto [4] (cell cycle stage: G1/S) and in the data set with HeLa Kyoto [4] (cell cycle stage: mitosis) were 54.4 °C and 52.4 °C, respectively.

“MEDRLHMDNGLVPQKIVSVHLQDSTLKEVKDQVSNKQAQILEPKPEPSLEIKPEQDGMEHVGRDDPKALGEEPKQRRGSASGSEPAGDSDRGGGPVEHYHLHLSSCHECLELENSTIESVKFASAENIPDLPYDYSSSLESVADETSPEREGRRVNLTGKAPNILLYVGSDSQEALGRFHEVRSVLADCVDIDSYILYHLLEDSALRDPWTDNCLLLVIATRESIPEDLYQKFMAYLSQGGKVLGLSSSFTFGGFQVTSKGALHKTVQNLVFSKADQSEVKLSVLSSGCRYQEGPVRLSPGRLQGHLENEDKDRMIVHVPFGTRGGEAVLCQVHLELPPSSNIVQTPEDFNLLKSSNFRRYEVLREILTTLGLSCDMKQVPALTPLYLLSAAEEIRDPLMQWLGKHVDSEGEIKSGQLSLRFVSSYVSEVEITPSCIPVVTNMEAFSSEHFNLEIYRQNLQTKQLGKVILFAEVTPTTMRLLDGLMFQTPQEMGLIVIAARQTEGKGRGGNVWLSPVGCALSTLLISIPLRSQLGQRIPFVQHLMSVAVVEAVRSIPEYQDINLRVKWPNDIYYSDLMKIGGVLVNSTLMGETFYILIGCGFNVTNSNPTICINDLITEYNKQHKAELKPLRADYLIARVVTVLEKLIKEFQDKGPNSVLPLYYRYWVHSGQQVHLGSAEGPKVSIVGLDDSGFLQVHQEGGEVVTVHPDGNSFDMLRNLILPKRR [HLCS]”: in the data set on HeLa Kyoto [1], the “solubility change mitosis (log2)” value is -0.216. The “solubility in G1/S (log2)” value in the data set on HeLa Kyoto [2] was -0.0872. Besides, the thermal stability score in the data set on HeLa Kyoto [3] (setting [5]) is -0.0478; in the data set on HeLa Kyoto [3] (cell cycle stage: mitosis), 0.641. The values for the melting temperature in the data set with HeLa Kyoto [4] (cell cycle stage: G1/S) and in the data set with HeLa Kyoto [4] (cell cycle stage: mitosis) were 50.8 °C and 51 °C, respectively.

Take “MEDYEQELCGVEDDFHNQFAAELEVLAELEGASTPSPSGVPLFTAGRPPRTFEEALARGDAASSPAPAASVGSSQGGARKRQVDADLQPAGSLPHAPRIKRPRLQVVKRLNFRSEEMEEPPPPDSSPTDITPPPSPEDLAELWGHGVSEAAADVGLTRASPAARNPVLRRPPILEDYVHVTSTEGVRAYLVLRADPMAPGVQGSLLHVPWRGGGQLDLLGVSLASLKKQVDGERRERLLQEAQKLSDTLHSLRSGEEEAAQPLGAPEEEPTDGQDASSHCLWVDEFAPRHYTELLSDDFTNRCLLKWLKLWDLVVFGHERPSRKPRPSVEPARVSKEATAPGKWKSHEQVLEEMLEAGLDPSQRPKQKVALLCGPPGLGKTTLAHVIARHAGYSVVEMNASDDRSPEVFRTRIEAATQMESVLGAGGKPNCLVIDEIDGAPVAAINVLLSILNRKGPQEVGPQGPAVPSGGGRRRRAEGGLLMRPIICICNDQFAPSLRQLKQQAFLLHFPPTLPSRLVQRLQEVSLRQGMRADPGVLAALCEKTDNDIRACINTLQFLYSRGQRELSVRDVQATRVGLKDQRRGLFSVWQEVFQLPRAQRRRVGQDPALPADTLLLGDGDAGSLTSASQRFYRVLHAAASAGEHEKVVQGLFDNFLRLRLRDSSLGAVCVALDWLAFDDLLAGAAHHSQSFQLLRYPPFLPVAFHVLFASSHTPRITFPSSQQEAQNRMSQMRNLIQTLVSGIAPATRSRATPQALLLDALCLLLDILAPKLRPVSTQLYSTREKQQLASLVGTMLAYSLTYRQERTPDGQYIYRLEPNVEELCRFPELPARKPLTYQTKQLIAREIEVEKMRRAEASARVENSPQVDGSPPGLEGLLGGIGEKGVHRPAPRNHEQRLEHIMRRAAREEQPEKDFFGRVVVRSTAVPSAGDTAPEQDSVERRMGTAVGRSEVWFRFNEGVSNAVRRSLYIRDLL [CHTF18]”: the “solubility change mitosis (log2)” value in the data set with HeLa Kyoto [1] was -0.209. Also, in the data set with HeLa Kyoto [2], the “solubility in G1/S (log2)” value is 0.136. For the same sequence, the thermal stability score in the data set on HeLa Kyoto [3] (setting [5]) is 1.86; in the data set with HeLa Kyoto [3] (cell cycle stage: mitosis), 2.46. Moreover, the melting temperature is 47 °C in the data set on HeLa Kyoto [4] (cell cycle stage: G1/S) and 49.3 °C in the data set with HeLa Kyoto [4] (cell cycle stage: mitosis).
